{"source": "patent US20220088115A1", "about": "“PHARMACEUTICAL COMPOSITION, COMPRISING INHIBITORY PEPTIDE AGAINST FAS SIGNALING, FOR PREVENTION OR TREATMENT OF OBESITY, FATTY LIVER, OR STEATOHEPATITIS” (SIGNET BIOTECH INC., priority 2018, published 2022)", "key": {"[1]": {"target": "T1, Fas (Mus musculus, UniProt P25446)", "T1 construct": "from tissue; host or cells: liver and white adipose tissue sections of high-fat-diet C57BL/6 mice", "T1 sequence (P25446 22-327)": "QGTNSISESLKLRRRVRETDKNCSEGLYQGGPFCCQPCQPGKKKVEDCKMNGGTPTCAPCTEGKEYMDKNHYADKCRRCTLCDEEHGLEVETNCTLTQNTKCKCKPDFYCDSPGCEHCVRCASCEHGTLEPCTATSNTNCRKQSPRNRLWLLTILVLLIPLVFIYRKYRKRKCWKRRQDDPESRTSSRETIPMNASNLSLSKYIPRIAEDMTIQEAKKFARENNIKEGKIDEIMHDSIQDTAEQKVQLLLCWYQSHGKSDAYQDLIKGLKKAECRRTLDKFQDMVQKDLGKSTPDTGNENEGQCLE", "assay": "Binding of fluorescently labeled peptide to Fas in liver and white adipose tissue sections of HFD mice", "details": "sections from high fat diet (HFD) group", "experimental": "After the animal experiment was completed, mice were sacrificed to isolate liver tissues and white adipose tissues and prepare tissue sections. The prepared liver tissue and white adipose tissue sections were treated with an antigen retrieval buffer at 95° C. for 25 minutes and then cooled at room temperature. Thereafter, the tissue sections were treated with Tris Based Saline+Tween20 (TBST) containing 1% bovine serum albumin (BSA), 10% goat serum and 0.05% Tween 20 to undergo a blocking process, and were reacted with a Fas receptor-specific primary antibody at 4° C. for 18 hours. Thereafter, tissue sections were washed with TBST and reacted with a FITC-bound secondary antibody at room temperature for 2 hours.\nIn addition, in order to examine the tissue-binding ability of the peptide, the peptide to which Alexa 488 was bound was reacted with the primary antibody at 4° C. for 18 hours. The nuclei were stained with Hoechst 33342 (GE Healthcare), washed with TBST, and then confirmed.\nThe fluorescence signal of each tissue section was analyzed under a TCS-SP5 confocal microscope (Leica, Germany)."}, "[2]": {"tested_on": "obesity model mice", "assay": "Pro-inflammatory cytokines in blood, obesity model mice, intravenous FBP-8", "assay_type": "in vivo, C57BL/6 mice", "experimental": "(§1) All animal experiments performed for the present invention were approved by the Institutional Animal Care and Use Committee of Hanyang University. […] Thereafter, depending on the experimental group, 60 μg/one time of FBP8 were administered by intravenous injection twice a week for a total of 5 weeks (FIG. 13), or FBP7 was administered by subcutaneous injection twice a day.\nThe cytokine levels of serum and tissues were analyzed with an ELISA kit (eBioscience, USA), and the triglyceride levels of liver tissues were confirmed with a triglyceride assay kit (Cayman, USA)."}, "[3]": {"assay": "Delivery of fluorescently labeled peptide to tissues of obesity model mice (HFD)", "assay_type": "in vivo, C57BL/6 mice", "experimental": "as §1\n100 μg of an Alexa 647-bound peptide was administered by intravenous injection into obesity model mice, and after 12, 24, and 48 hours, the tissues were isolated, and the fluorescence signals in each tissue were analyzed with an image station fluorescence analyzer (Carestream). After the fluorescence signal analysis, the relative fluorescence intensity of each tissue was compared using an ImageJ program provided by NIH.\nIn addition, 100 μg of Alexa 488-bound FBP was administered by intravenous injection into obesity model mice to confirm whether cell units of peptides were delivered to liver tissues, and frozen tissue sections were produced by isolating the liver tissues after 12, 24, and 48 hours. Thereafter, the nuclei were stained with Hoechst 33342, and the fluorescence signals were analyzed under a TCS-SP5 confocal microscope.\nBased on the Fas-specific binding ability of FBP-8 confirmed by the experiments, it was confirmed whether FBP-8 could be specifically delivered to liver tissues or adipose tissues when systemically delivered by intravenous injection or subcutaneous injection. Fluorescently labeled FBP-8 was injected by intravenous injection or subcutaneous injection into obesity model mice in the high fat diet group, and after 24 and 48 hours, the fluorescence distribution was investigated by isolating each organ."}, "[4]": {"tested_on": "3T3L1 cell line", "assay": "Expression of inflammation-related genes in 3T3L1 cell line treated with FasL and peptide", "assay_type": "cell-based, murine", "details": "differentiated 3T3L1 treated with Fas ligand and FBP-8 in combination", "experimental": "The 3T3L1 cell line was cultured in a DMEM culture medium containing 10% FBS, 1% penicillin, 1% streptomycin, and 25 mM glucose. The 3T3L1 cell line was aliquoted into the above DMEM culture solution at a concentration of 2×10^5 cells/ml to induce adipocyte maturation for 3 days, and then replaced with a culture solution containing insulin to induce adipocyte maturation again for 3 days. Thereafter, the 3T3L1 cell line was further cultured in the above DMEM culture solution for 2 days to achieve complete maturation of adipocytes.\nmRNA was extracted from liver tissues and white adipose tissues using RNAiso (Takara, Japan), and cDNA was synthesized with an iscript cDNA synthesis kit (Bio-Rad Laboratories, USA). Thereafter, a gene expression level was analyzed by the 7500 Fast Real-time PCR system (Applied Biosystems, USA). The expression level of each gene was normalized with the expression level of a GAPDH gene, and then calculated as a relative gene expression level with respect to the control."}, "[5]": {"details": "intravenous, liver tissue sections"}}, "data": [{"sequence": "YCDEHFCY (Fas binding peptide-8 (FBP-8))", "values": [{"measurement": "co-staining with Fas-specific antibody in liver and white adipose tissue sections", "setting": "[1]", "value": "the stained sites coincided"}, {"measurement": "concentrations of IL-6 and MCP-1 in blood", "setting": "[2]", "value": "decrease"}, {"measurement": "tissue delivery after intravenous injection", "setting": "[3]; intravenous, 24 and 48 hours", "value": "specifically delivered to the liver tissue and white adipose tissue"}, {"measurement": "time from which peptide was delivered to the liver tissue after intravenous injection", "setting": "[3]; [5]", "value": 12, "unit": "h"}, {"measurement": "time until which peptide remained in the liver tissue after intravenous injection", "setting": "[3]; [5]", "value": 48, "unit": "h"}, {"measurement": "time remaining in the liver tissue after subcutaneous injection", "setting": "[3]; subcutaneous", "value": "≥ 48", "unit": "h"}, {"measurement": "tissue delivery after subcutaneous injection", "setting": "[3]; subcutaneous, compared to CtrFBP, 24 and 48 hours", "value": "specifically delivered to the liver tissue"}, {"measurement": "expressions of inflammation-related genes Fas, TNF-α, MCP-1, F4/80, IL-6 and iNOS", "setting": "[4]", "value": "remarkably reduced"}]}]}
